Results: FireProtDB (doi:10.1021/bi9707180)

B1: Guanyl-specific ribonuclease T1, P00651 (parent)
chain: MMYSKLLTLTTLLLPTALALPSLVERACDYTCGSNCYSSSDVSTAQAAGYQLHEDGETVGSNSYPHKYNNYEGFDFSVSSPYYEWPILSSGDVYSGGSPGADRVVFNENNQLAGVITHTGASGNNFVECT

Variants of: B1
Conditions: Aspergillus oryzae (strain ATCC 42149 / RIB 40), 0 °C, Urea, CD, reversible: yes, structure 1RN1, whole UniProt chain shown

Variant	ddG of mutation (higher = less stable) (pH 2.5, glycine 30 mM) [kcal/mol]	denaturant m value (pH 2.5, glycine 30 mM) [kcal/mol/M]	denaturant midpoint (higher = more stable) (pH 2.5, glycine 30 mM) [M]	ddG of mutation (higher = less stable) (pH 7, MOPS 30 mM) [kcal/mol]	denaturant m value (pH 7, MOPS 30 mM) [kcal/mol/M]	denaturant midpoint (higher = more stable) (pH 7, MOPS 30 mM) [M]
A47L	0.13	1.64	2.7			
A47K	0.51	1.7	2.47			
A47G	0.9	1.71	2.23			
A47S	0.49	1.67	2.48	0.4	1.22	3.99
A47Y	0.39	1.69	2.54			
A47H	0.56	1.79	2.44	0.17	1.27	4.18
A47D	-0.33	1.59	2.98	0.71	1.24	3.73
A47V	0.66	1.77	2.38			
A47C	0.74	1.56	2.33			
A47R	0.41	1.65	2.53			
A47I	0.44	1.57	2.51			
A47E	-0.05	1.52	2.81	0.69	1.14	3.75
A47W	0.3	1.56	2.6			
A47M	0.15	1.6	2.69			
A47F	0.57	1.69	2.43			
A47T	0.57	1.6	2.43			
A47N	-0.34	1.72	2.99			
A47Q				0.4	1.12	3.99
